# How the values were obtained:
# Assay in all cases: Kinase Profiling Assay
# Type in all cases: biochemical
# Details in all cases: 100 μM peptide
# WNK3(h) = WNK3(h) (Homo sapiens, UniProt Q9BYP7)
# In short: (§1)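 Specificity of the MK2-directed peptides is examined by measuring activity of 266 human kinases, every determination performed in duplicate.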
# SAPK4(h) = biological target: T1, SAPK4(h) (Homo sapiens, UniProt O15264)
# T1 sequence (O15264 1-365): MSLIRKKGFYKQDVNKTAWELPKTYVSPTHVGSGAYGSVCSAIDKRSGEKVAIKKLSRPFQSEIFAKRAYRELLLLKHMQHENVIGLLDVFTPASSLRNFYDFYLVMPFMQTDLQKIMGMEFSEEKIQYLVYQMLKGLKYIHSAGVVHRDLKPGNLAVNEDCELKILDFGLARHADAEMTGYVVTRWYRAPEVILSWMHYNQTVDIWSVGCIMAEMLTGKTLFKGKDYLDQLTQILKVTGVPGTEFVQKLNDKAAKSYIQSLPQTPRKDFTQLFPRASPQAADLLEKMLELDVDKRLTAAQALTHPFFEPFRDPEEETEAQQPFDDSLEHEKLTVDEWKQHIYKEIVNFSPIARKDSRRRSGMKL
# In short: as §1
# AMPKα2(h) = AMPKα2(h) (Homo sapiens, UniProt P54646)
# In short: as §1
# Arg(h) = Arg(h) (Homo sapiens, UniProt P42684)
# In short: as §1
# TAO3(h) = biological target: T2, TAO3(h) (Homo sapiens, UniProt Q9H2K8)
# T2 sequence (Q9H2K8 1-898): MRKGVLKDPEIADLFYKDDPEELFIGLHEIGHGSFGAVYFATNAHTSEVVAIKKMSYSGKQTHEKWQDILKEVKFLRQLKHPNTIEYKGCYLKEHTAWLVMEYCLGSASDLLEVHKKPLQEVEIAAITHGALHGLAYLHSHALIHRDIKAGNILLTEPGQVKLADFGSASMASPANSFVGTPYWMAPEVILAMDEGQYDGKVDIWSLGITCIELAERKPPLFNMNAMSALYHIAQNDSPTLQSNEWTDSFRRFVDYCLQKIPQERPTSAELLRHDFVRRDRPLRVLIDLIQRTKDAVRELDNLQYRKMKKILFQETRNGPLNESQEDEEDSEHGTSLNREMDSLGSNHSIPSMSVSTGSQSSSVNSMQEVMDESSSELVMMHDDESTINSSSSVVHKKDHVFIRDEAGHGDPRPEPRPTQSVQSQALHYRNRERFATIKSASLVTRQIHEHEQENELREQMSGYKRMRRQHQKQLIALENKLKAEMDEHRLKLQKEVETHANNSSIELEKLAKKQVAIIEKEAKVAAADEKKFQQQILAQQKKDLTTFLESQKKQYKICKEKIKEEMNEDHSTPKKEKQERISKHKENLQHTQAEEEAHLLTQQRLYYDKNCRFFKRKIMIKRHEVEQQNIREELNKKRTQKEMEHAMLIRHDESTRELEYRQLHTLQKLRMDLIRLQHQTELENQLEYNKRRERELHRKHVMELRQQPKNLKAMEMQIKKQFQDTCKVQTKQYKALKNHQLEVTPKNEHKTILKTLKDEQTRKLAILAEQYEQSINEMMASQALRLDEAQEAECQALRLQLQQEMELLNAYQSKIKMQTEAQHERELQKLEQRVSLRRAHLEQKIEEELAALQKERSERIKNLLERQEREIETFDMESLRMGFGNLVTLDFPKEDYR
# In short: as §1
# mTOR(h) = mTOR(h) (Homo sapiens, UniProt P42345)
# In short: as §1
# PKG1α(h) = biological target: T3, PKG1α(h) (Homo sapiens, UniProt Q13976)
# T3 construct: purchased Millipore (IC50 Profiler Express service)
# T3 sequence (Q13976 1-671): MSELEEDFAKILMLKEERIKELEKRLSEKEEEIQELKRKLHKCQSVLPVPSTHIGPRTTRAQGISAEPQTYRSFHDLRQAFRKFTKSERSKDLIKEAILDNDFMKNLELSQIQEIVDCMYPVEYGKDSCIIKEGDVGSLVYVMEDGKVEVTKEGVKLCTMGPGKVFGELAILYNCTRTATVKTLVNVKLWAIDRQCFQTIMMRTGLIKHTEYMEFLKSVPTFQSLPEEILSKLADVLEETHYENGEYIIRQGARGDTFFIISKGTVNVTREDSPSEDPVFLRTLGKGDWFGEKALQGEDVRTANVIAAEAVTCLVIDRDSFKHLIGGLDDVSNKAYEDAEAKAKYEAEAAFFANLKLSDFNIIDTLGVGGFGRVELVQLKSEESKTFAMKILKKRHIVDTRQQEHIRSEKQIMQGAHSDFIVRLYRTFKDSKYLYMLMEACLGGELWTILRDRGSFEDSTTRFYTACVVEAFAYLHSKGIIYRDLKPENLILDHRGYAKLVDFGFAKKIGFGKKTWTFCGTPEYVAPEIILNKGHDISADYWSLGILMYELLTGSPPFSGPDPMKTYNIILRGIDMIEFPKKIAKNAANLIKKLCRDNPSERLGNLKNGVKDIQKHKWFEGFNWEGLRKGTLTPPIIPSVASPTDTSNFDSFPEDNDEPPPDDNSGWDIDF
# In short: as §1
# Syk(h) = Syk(h) (Homo sapiens, UniProt P43405)
# In short: as §1
# Sequence of Arg(h) (P42684 whole entry): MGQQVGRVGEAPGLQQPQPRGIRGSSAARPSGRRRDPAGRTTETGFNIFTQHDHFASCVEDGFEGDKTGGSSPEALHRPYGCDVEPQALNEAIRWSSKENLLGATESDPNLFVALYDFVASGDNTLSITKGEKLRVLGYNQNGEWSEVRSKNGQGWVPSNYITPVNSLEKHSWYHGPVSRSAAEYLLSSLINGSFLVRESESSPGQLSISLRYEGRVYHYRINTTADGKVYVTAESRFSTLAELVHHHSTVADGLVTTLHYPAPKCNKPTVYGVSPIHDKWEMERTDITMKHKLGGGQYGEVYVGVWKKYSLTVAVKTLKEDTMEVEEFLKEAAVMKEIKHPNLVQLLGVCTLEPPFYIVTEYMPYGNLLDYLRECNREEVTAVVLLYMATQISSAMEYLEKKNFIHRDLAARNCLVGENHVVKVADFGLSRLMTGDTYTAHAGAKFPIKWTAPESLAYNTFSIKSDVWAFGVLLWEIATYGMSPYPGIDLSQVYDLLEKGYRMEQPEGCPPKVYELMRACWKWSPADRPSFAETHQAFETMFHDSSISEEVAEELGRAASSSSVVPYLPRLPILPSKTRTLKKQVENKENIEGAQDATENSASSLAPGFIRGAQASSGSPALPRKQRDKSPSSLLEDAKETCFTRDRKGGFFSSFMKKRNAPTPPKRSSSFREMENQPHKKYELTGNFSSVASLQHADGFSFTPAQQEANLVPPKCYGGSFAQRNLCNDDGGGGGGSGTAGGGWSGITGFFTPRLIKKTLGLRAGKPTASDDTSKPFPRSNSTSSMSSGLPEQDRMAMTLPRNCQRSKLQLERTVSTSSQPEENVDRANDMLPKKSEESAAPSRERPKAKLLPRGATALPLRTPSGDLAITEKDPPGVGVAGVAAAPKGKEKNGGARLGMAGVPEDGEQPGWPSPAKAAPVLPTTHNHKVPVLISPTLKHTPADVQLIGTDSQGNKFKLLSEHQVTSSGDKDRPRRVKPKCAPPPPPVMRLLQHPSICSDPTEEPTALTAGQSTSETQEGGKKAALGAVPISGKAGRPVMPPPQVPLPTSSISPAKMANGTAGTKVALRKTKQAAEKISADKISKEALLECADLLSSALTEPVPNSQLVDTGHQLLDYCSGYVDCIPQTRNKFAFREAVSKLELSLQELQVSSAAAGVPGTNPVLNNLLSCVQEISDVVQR
# Sequence of WNK3(h) (Q9BYP7 whole entry): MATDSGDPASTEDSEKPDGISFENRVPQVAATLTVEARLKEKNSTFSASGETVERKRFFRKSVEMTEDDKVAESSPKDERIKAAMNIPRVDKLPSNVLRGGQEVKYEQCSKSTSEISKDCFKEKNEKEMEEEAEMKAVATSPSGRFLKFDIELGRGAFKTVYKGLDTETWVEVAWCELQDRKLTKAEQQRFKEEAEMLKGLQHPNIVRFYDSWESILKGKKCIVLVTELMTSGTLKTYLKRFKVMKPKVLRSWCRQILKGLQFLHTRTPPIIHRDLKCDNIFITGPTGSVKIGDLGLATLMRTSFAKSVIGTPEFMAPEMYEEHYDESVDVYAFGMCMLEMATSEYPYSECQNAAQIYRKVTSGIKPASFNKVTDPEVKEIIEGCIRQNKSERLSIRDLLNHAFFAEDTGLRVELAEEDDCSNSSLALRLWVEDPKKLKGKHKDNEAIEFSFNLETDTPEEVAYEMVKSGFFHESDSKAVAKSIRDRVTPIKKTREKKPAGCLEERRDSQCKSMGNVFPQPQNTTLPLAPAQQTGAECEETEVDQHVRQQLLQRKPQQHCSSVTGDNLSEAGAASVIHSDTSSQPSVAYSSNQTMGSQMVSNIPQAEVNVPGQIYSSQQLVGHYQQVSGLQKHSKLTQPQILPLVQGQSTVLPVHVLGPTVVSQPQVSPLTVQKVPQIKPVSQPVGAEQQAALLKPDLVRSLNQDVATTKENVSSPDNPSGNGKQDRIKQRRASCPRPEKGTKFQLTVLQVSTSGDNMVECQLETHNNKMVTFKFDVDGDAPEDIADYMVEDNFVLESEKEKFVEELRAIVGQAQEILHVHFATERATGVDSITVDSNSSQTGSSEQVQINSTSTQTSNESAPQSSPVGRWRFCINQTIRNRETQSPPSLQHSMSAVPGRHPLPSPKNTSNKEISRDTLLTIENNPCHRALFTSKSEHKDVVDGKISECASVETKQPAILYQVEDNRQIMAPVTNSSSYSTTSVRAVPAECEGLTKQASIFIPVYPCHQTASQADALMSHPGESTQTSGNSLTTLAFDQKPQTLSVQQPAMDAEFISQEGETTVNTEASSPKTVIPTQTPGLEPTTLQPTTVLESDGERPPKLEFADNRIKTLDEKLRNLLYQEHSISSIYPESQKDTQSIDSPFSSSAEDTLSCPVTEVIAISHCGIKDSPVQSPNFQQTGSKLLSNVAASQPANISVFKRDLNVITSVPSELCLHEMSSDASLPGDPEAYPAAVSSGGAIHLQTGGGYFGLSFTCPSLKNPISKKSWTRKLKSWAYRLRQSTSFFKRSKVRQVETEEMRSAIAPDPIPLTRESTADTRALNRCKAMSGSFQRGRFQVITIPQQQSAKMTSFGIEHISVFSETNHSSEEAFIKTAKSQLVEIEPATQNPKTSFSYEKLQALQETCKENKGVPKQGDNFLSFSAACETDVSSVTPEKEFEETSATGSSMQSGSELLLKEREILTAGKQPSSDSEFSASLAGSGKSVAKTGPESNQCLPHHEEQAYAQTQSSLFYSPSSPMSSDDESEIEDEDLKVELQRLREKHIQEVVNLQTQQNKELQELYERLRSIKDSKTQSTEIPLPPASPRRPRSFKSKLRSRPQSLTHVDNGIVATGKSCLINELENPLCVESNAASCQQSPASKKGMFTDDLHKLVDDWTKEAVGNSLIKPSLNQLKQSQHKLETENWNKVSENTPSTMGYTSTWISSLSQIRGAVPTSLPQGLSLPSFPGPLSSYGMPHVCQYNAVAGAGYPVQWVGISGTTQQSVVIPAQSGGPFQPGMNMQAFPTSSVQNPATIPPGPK
# Sequence of AMPKα2(h) (P54646 whole entry): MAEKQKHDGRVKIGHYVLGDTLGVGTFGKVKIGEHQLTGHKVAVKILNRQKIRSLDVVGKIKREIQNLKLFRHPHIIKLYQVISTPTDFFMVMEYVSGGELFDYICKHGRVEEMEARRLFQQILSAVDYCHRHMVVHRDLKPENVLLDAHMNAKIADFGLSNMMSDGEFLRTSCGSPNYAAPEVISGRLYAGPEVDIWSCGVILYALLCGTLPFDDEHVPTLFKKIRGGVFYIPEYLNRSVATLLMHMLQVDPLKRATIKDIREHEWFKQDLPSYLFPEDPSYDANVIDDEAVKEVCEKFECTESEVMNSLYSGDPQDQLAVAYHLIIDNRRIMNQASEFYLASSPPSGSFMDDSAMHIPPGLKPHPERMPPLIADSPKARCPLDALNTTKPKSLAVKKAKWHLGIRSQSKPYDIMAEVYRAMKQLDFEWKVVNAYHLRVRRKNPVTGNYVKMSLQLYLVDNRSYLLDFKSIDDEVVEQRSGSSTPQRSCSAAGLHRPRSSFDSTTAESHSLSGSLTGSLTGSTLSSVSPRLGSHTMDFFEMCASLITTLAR
# Sequence of AMPKα2(h) (Q9Y478 whole entry partner): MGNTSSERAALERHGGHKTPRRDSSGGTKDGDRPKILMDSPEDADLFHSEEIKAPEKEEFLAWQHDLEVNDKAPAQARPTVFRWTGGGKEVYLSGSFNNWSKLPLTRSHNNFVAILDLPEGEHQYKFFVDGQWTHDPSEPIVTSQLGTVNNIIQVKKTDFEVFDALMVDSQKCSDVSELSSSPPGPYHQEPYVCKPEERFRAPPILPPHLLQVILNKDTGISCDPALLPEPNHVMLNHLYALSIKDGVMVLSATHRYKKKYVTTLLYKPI
# Sequence of AMPKα2(h) (P54619 whole entry partner): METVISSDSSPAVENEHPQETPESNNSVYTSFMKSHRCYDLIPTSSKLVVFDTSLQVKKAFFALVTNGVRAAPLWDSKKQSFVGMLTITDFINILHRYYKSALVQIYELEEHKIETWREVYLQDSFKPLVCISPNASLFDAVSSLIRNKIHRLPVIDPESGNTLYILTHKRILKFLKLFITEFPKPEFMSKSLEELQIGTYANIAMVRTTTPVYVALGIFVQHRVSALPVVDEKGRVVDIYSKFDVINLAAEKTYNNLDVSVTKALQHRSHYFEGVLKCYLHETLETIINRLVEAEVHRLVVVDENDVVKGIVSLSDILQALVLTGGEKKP
Sequence,WNK3(h) % activity (WNK3(h)) [%],SAPK4(h) % activity (SAPK4(h)) [%],AMPKα2(h) % activity (AMPKα2(h)) [%],Arg(h) % activity (Arg(h)) [%],TAO3(h) % activity (TAO3(h)) [%],mTOR(h) % activity (mTOR(h)) [%],PKG1α(h) % activity (PKG1α(h)) [%],Syk(h) % activity (Syk(h)) [%]
KAFAKLAARLYRKALARQLGVAA [MMI-0400],74,91,58,84,67,93,58,9
YARAAARQARAKALNRQLGVA (Mammalian) [MMI-0200],97,,88,82,,110,70,36
FAKLAARLYRKALARQLGVAA [MMI-0300],77,96,54,72,77,91,64,24
HRRIKAWLKKIKALARQLGVAA (Mammalian) [MMI-0500],9,48,9,22,12,135,25,5

# From US10562947B2, “Compositions and methods for preventing or treating diseases, conditions or processes characterized by aberrant fibroblast proliferation and extracellular matrix deposition” (MOERAE MATRIX, INC., priority 2011, dated 2020)
